The values below come from publication PMC8716928.

The target of the test is Fragment F109–221 of GvpF, split-GFP fusion (Halobacterium salinarum). In words: split reporter (BiFC, NanoBiT); split-GFP (mGFP2) in Hfx. volcanii transformants, entire Gvp proteins and fragments (Figure 7); arrangement of the GFP portions not stated; relative fluorescence (rf) of cells against untransformed WR340.

A value given as a limit tells only on which side of the number the result lay.

In the case of MAQPDSSGLAEVLDRVLDKGVV [Fragment A1–22 of GvpA, split-GFP fusion], the relative fluorescence (rf) is less than 4 rf.

B1: GvpA, entire protein, split-GFP fusion (natural protein)
chain: MAQPDSSGLAEVLDRVLDKGVVVDVWARVSLVGIEILTVEARVVAASVDTFLHYAEEIAKIEQAELTAGAEAAPEA
Molecule B1 registered a relative fluorescence (rf) of less than 4 rf.
